Earlier results on three substances are cited in paper PMC5805400.

Like-named read-outs stand apart in the source and are kept apart here.

Series [1] concerns the target CYP2J2 (Homo sapiens) (UniProt P51589). The series can be described thus: spin shift.
Series [2] addresses ICP47 (Human alphaherpesvirus 1) (UniProt P03170).
Series [3] shares this target. The source holds these as a separate data set.
Series [4] has as its target CYP2B4 (Oryctolagus cuniculus) (UniProt P00178).
Series [5] shares this target. The source holds these as a separate data set.

UniProt P03170, sequence (P03170 whole entry): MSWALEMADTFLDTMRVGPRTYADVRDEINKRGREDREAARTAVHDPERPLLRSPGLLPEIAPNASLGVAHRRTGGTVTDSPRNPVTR
UniProt P00178, sequence (P00178 whole entry): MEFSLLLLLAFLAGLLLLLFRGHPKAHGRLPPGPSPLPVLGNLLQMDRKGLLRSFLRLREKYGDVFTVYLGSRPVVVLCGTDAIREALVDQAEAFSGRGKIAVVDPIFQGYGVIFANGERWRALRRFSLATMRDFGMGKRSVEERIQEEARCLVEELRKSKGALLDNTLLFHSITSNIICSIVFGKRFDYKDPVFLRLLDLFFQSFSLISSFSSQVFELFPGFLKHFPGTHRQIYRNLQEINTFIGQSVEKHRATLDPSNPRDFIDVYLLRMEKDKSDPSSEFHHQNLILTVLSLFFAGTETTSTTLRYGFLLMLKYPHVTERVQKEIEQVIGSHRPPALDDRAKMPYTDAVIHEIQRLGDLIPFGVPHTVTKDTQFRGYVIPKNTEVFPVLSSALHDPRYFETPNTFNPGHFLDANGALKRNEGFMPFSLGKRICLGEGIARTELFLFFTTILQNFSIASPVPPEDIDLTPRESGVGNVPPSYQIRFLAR
UniProt P51589, sequence (P51589 whole entry): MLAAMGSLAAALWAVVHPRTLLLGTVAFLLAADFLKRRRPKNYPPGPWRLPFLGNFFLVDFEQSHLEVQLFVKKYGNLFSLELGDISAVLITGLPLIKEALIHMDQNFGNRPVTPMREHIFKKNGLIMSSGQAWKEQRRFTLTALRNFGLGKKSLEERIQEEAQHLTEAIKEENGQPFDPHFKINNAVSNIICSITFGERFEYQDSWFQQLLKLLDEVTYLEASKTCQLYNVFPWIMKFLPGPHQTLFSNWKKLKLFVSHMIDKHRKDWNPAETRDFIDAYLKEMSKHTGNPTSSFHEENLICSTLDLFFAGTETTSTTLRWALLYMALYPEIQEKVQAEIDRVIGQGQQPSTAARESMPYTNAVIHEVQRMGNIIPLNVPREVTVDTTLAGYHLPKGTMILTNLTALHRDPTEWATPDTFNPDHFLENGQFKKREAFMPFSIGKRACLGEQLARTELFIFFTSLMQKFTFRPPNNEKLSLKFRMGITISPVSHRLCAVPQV

Consider CPR (from UniProt P16435), for which the Kd (commonly the equilibrium constant for the complex coming apart) in series [1] was 120 nM.

On to TAP (from UniProt Q03518), for which the Ki (in general, a dissociation constant, usually derived from enzyme kinetics or from competition with a known ligand) was 280 nM in series [2] and 210 nM in series [3].

As to Cytochrome b5 (from UniProt P00169), the Kd in series [4] was 8 nM; in series [5] it was 140 nM.
